2 molecules from patent US20220281980A1 (Bristol-Myers Squibb, published 2022) can be followed below.

Residue numbers refer to the chain shown, from its start. “And” between values parts separate entries of the source, which are not always exact repeats. Equal values may be shown once.

In experiment [1] the target is T1, human MICB expressed on transduced cells (human, UniProt Q29980 23-382).
T1 construct: also called MICB*005
T1 chain: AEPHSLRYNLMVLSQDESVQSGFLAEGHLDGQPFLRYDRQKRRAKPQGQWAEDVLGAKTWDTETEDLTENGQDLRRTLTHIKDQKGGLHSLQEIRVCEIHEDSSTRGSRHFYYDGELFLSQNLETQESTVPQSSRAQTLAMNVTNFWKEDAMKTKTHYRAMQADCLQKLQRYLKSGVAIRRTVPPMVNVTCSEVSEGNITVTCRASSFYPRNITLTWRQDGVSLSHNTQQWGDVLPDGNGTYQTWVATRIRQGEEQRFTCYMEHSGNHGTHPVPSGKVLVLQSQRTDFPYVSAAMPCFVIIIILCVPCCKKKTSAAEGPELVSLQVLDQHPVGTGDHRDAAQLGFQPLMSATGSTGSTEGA
In words: flow cytometry, transfected CHO cells. For orientation: Flow cytometry measures light scatter and fluorescence of single cells or particles in a stream.

Experiment [2] concerns the target T2, cynomolgus monkey MICA/B clone #4 expressed on CHO cells (cynomolgus monkey).
T2 construct: whole, on cells; also called cyno#4; CHO-cyno MICA clone #4
In words: flow cytometry, transfected CHO cells.

Experiment [3] deals with T3, cynomolgus monkey MICA/B clone #6 expressed on CHO cells (cynomolgus monkey).
T3 construct: whole, on cells; also called cyno#6; CHO-cyno MICA clone #6
In words: flow cytometry, transfected CHO cells.

In experiment [4] the target is T4, recombinant soluble human MICA*002 antigen (human, UniProt Q29983 24-307).
T4 construct: also called huIMICA-his allele *002
T4 chain: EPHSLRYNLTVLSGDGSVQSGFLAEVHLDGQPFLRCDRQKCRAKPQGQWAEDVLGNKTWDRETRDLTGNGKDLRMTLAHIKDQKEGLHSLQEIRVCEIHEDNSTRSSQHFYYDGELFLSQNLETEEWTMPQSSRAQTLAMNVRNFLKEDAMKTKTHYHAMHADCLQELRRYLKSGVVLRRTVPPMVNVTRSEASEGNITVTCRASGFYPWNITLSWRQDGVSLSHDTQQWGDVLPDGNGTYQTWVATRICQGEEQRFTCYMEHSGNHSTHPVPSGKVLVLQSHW
In words: SPR (Biacore 3000), antibody captured on Protein G chip, huMICA-his analyte; power of ten not given. On the procedure:
(§1) Kinetics and affinity of anti-MICA/B antibodies MICA.2, 19G6, 16A5, and 71C2 towards human MICA alleles (huIMICA-his allele *002, *004, *008, and *009) were also determined on a BIACORE 3000® instrument using the following conditions: [0571] Running Buffer: HES-EP running buffer [0572] Chip: CM5 Protein G Chip Fc1: Blank. Fc2-4: ˜200Rus [0573] Ab: 5 ug/mL, 10 uL @ 10 uL/min [0574] Ag binding: 5 min association, 7 min dissociation @ 25 uL/min, [0575] Regeneration: Glycine 1.7, 10 uL @ 100 uL/min followed by 60s wash by HES-EP

Experiment [5] deals with T5, recombinant soluble human MICA*009 antigen (human, UniProt Q29983 24-307).
T5 construct: also called huIMICA-his allele *009
T5 chain: T4 chain with G14W, C36Y, M129V, K173E, G175S, G206S, W210R, S215T
Described as above. On the procedure:
as §1

The target of experiment [6] is T6, recombinant soluble human MICA*004 antigen (human, UniProt Q29983 24-307).
T6 construct: also called huIMICA-his allele *004
T6 chain: T4 chain with G14W, C36Y, L122V, M129V, K173E, G175S, T181R, G206S, W210R, W216T
The experiment is described as above. On the procedure: as §1

Experiment [7] deals with T7, recombinant soluble human MICA*008 antigen (human, UniProt Q29983 24-307).
T7 construct: also called huIMICA-his allele *008; recombinant soluble MICA (allele 8)
T7 chain: T4 chain with G14W, C36Y, M129V, K173E, G206S, W210R, T213I, S215T, Q251R
The description is as above. The procedure:
as §1

Experiment [8] has as its target T4, recombinant soluble human MICA*002 …. In words: SPR (Biacore 3000), antibody captured on Protein G chip, huMICA-his analyte. On the procedure: as §1
For orientation: Surface plasmon resonance follows binding to a sensor surface in real time, without labels.

Experiment [9] concerns the target T5, recombinant soluble human MICA*009 …. Described as above. The procedure:
as §1

Experiment [10] deals with T6, recombinant soluble human MICA*004 …. Described as above. The procedure: as §1
In experiment [11] the target is T7, recombinant soluble human MICA*008 …. Described as above. The procedure:
as §1

For experiment [12] the target is unchanged. In words: BLI (Octet) sandwich binning on soluble MICA allele 8, row antibody captured; competitor (second antibody): MICA.36. On the procedure:
(§2) The binning experiments were performed on an Octet HTX instrument at 25° C. in HEPES buffered saline (10 mM HEPES pH 7.4, 150 mM NaCl, 0.05% v/v surfactant P20, and 1 mg/mL BSA). Anti-MICA/B antibodies and NKG2D-mFc were captured on anti-Fc tips and remaining capture sites were blocked with an excess of negative control IgG. Recombinant soluble MICA (allele 8) was bound and subsequent binding (“sandwiching”) of anti-MICA/B antibodies was tested.

The target is the same in experiment [13]. In words: BLI (Octet) sandwich binning on soluble MICA allele 8, row antibody captured; competitor (second antibody): MICA.2. The procedure:
as §2
Background: In BLI a coated tip is dipped into the sample, and binding shifts an interference pattern.

Experiment [14] shares this target. In words: BLI (Octet) sandwich binning on soluble MICA allele 8, row antibody captured; competitor (second antibody): MICA.40. The procedure: as §2
For experiment [15], the target named is T4, recombinant soluble human MICA*002 …. In words: SPR (Biacore T200, 37 C), antibody captured on anti-human Fc, antigen 500 and 50 nM. On the procedure: (§3) Anti-MICA/B antibodies were captured to α-human Fc surfaces. MICA allele antigens were injected at high and low nanomolar concentrations (500 nM and 50 nM, except indicated otherwise). The results for antibodies MICA.36 and MICA.38 (MICA.2 with a Ser inserted between residues 95 and 96 in the light chain) are shown in Table 2 below.

For experiment [16], the target named is T5, recombinant soluble human MICA*009 …. Described as above. The procedure:
as §3

Experiment [17] has as its target T6, recombinant soluble human MICA*004 …. Described as above. On the procedure: as §3
Experiment [18] addresses T7, recombinant soluble human MICA*008 …. The experiment is described as above. The procedure:
as §3

Experiment [19] has the same target. In words: BLI (Octet) sandwich binning on soluble MICA allele 8, row antibody captured; competitor (second antibody): MICA.39. The procedure: as §2
The target is the same in experiment [20]. In words: BLI (Octet) sandwich binning on soluble MICA allele 8, row antibody captured; competitor (second antibody): MICA.38. On the procedure: as §2

B1: 16A5 (antibody, V domains shown)
VH: QVQLVESGGDVVQPGRSLRLSCAASGFTFSNYNIHWVRQAPGKGLEWVAVIRYDGINKYYADSVKGRFIISRDNSKNTLYLQMNSLRAEDTAVYYCASGPPDAFNIWGQGTMVTVSS
VL: AIQLTQSPSSLSASVGDRVTITCRASQGISSALAWYQQKPGKVPKSLIYDASSLESGVPSRFSGSGSGTDFTLTISSLQPEDFATYYCQQFNSYPITFGQGTRLEIK
notes: Hybridoma antibody; #1 and #2 are two hybridoma lines from the same clone; also called 16A5 (#1); 16A5 (#2)
Regarding B1, the EC50 (usually the concentration at which the effect is half-maximal) in experiment [1] was 8.16 nM and 21.6 nM; in experiment [2], 0.856 nM and 2.38 nM; in experiment [3], 9.26 nM and 13.8 nM. The koff (usually a measure of how fast the partners let go of each other) in experiment [4] is 0.0104 s⁻¹; in experiment [5], 2.15 s⁻¹; in experiment [6], 1.72 s⁻¹; in experiment [7], 1.72 s⁻¹. In addition, the Kd (commonly the concentration at which binding is half-saturated) amounted to 147 nM in experiment [8], 12.9 nM in experiment [9], 6.89 nM in experiment [10] and 4.55 nM in experiment [11].

B2: MICA.38 (antibody, V domains shown)
VH: EVQLVESGGGLVQPGGSLRLSCAASGFTFSTYSMNWVRQAPGKGLEWVSYISYRSRTIYYADSVKGRFTISRDNARNSLYLQMNSLRDEDTAVYYCARWGYGSGGFDYWGQGTLVTVSS
VL: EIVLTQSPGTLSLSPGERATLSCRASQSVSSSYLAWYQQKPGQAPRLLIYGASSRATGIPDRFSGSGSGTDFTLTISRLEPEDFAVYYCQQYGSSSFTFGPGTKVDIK
notes: MICA.2 with a Ser inserted between residues 95 and 96 in the light chain; also called MICA.38_3F5_S95k
Consider B2, for which the “simultaneous binding (0 = no, 1 = yes)” value in experiment [12] came to 1; in experiment [13], 0; in experiment [14], 0; in experiment [19] it was 0; in experiment [20], 0. Besides, the Kd in experiment [15] was determined as 123 nM; in [16] it was 126 nM; in experiment [17], 104 nM; in experiment [18], 130 nM. Also, the koff amounted to 0.127 s⁻¹ in [15], 0.0502 s⁻¹ in [16], 0.0426 s⁻¹ in experiment [17] and 0.078 s⁻¹ in experiment [18]. In addition, the kon (in general, a measure of how fast the partners come together) came to 1.03e+06 M⁻¹ s⁻¹ in [15], 397000 M⁻¹ s⁻¹ in experiment [16], 410000 M⁻¹ s⁻¹ in experiment [17] and 600000 M⁻¹ s⁻¹ in [18].
